Results reported in article PMC3541284 (Autophagy, 2012).

Target: 6xHis-GABARAP (UniProt O95166 1-117)
Assay: pull-down

Chain of 6xHis-GABARAP (O95166 whole entry): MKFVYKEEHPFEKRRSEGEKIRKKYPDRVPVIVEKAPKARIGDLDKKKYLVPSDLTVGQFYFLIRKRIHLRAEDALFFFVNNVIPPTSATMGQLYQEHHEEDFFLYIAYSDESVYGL

- binding result: binds
B1: GST-MAPK15_300–373_WT (domain or fragment, UniProt Q8TD08 300-373, looked up)
chain: QHPYVQRFHCPSDEWAREADVRPRAHEGVQLSVPEYRSRVYQMILECGGSSGTSREKGPEGVSPSQAHLHKPRA
